For one substance, stoichiometry N results are on record in PMC9378758.

This test addresses Chikungunya virus (CHIKV) strain S27 E1 glycoprotein (Chikungunya virus strain S27). As to the kind of experiment: cryo-EM structure; cryo-ET with sub-tomogram averaging (PEET) of 591 protein spikes on liposomes after completed fusion with CHIKV at low pH, late time points, room temperature; 27.2 Å at 0.5 FSC; 3-fold symmetry seen before it was imposed.

With “Chikungunya virus (CHIKV) strain S27 E1 glycoprotein (natural protein)”, the stoichiometry N – broadly, the number of molecules, sites or subunits per partner or assembly – was found to be 3.
